From publication PMC11201819 (Protein Science : A Publication of the Protein Society, 2024)

Assays:
[1] = test system: N[C@@H](CC=O)C(=O)O; experiment: purified protein
[2] = molecular target: T1, CLsoDHDPS (dihydrodipicolinate synthase) (Candidatus Liberibacter solanacearum, UniProt A0A0F4VK59); assay type: binding
T1 construct: gene dapA

[3] = molecular target: T1, CLsoDHDPS (dihydrodipicolinate synthase); experiment: biochemical
[4] = molecular target: T1, CLsoDHDPS (dihydrodipicolinate synthase); experiment: biochemical; remark: listed apart in the source

T1 sequence (A0A0F4VK59 1-296): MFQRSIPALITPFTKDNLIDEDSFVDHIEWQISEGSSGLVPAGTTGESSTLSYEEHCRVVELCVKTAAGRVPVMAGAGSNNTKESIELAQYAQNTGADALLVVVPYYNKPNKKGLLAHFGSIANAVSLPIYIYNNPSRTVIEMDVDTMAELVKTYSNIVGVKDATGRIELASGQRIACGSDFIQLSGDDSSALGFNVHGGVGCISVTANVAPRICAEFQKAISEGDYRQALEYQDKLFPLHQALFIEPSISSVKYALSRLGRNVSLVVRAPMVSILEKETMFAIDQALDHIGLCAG

In the case of “CLsoDHDPS (dihydrodipicolinate synthase) (Candidatus Liberibacter solanacearum)”, the Km [1] is reported as 0.033 ± 0.003 mM, the kcat [1] is reported as 6 ± 0.2 s⁻¹ and the kcat/Km [1] is reported as 180000 M⁻¹ s⁻¹.
For O=CCCC(=O)O [SSA, succinic semi‐aldehyde], the “X-ray crystal structure (1.93 Å) with pyruvate” value [2] was “continuous density between Lys162, pyruvate, and succinic semi‐aldehyde such that the carbon–carbon bond between these substrates has formed”.
CC(=O)C(=O)O [pyruvate] was tested, and the Kd [3] was 2000 ± 700 nM.
Compound NCCCC[C@H](N)C(=O)O [lysine] has a Ki [4] of 121 ± 5 µM.
